Test results from patent US20230073692A1 (CYTOMX THERAPEUTICS, published 2023).

What was measured:
[1] = target: T1, Human SLC34A2 (human, UniProt O95436 1-690); assay: cell binding, OVCAR3 cells
T1 construct: whole, on cells; also called SLC34A2 on OVCAR3 cells; Rat 1E Human SLC34A2
T1 sequence (looked up): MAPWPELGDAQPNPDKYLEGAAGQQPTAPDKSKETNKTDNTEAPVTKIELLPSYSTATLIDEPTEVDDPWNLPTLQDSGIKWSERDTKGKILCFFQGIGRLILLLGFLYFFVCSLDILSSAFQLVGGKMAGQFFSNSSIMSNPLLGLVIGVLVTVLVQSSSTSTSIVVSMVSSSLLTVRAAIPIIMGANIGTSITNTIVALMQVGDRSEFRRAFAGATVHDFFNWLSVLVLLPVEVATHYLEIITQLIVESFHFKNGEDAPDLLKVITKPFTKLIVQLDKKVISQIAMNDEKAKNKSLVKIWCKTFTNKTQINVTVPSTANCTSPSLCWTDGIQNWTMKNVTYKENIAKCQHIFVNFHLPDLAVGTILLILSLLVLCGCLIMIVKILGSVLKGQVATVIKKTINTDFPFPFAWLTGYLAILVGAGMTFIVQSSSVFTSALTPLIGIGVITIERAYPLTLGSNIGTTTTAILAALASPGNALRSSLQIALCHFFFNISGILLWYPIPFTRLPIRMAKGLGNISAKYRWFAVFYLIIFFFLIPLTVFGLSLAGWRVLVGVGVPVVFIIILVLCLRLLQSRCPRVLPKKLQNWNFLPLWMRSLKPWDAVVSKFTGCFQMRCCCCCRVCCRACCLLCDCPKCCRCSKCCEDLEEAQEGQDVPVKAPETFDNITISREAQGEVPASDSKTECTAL

[2] = target: Murine SLC34A2 (murine) (UniProt Q9DBP0); assay: cell binding, Rat1E cells expressing murine SLC34A2
[3] = target: T2, Cyno SLC34A2 (cynomolgus monkey, UniProt A0A2K5UHY1 1-690); assay: cell binding, Rat1E cells expressing cyno SLC34A2
T2 construct: whole, on cells; Recombinant, on Rat1E cells; also called cynomolgus monkey SLC34A2; Rat1E cells expressing SLC34A2 (Cynomolgus)
T2 sequence: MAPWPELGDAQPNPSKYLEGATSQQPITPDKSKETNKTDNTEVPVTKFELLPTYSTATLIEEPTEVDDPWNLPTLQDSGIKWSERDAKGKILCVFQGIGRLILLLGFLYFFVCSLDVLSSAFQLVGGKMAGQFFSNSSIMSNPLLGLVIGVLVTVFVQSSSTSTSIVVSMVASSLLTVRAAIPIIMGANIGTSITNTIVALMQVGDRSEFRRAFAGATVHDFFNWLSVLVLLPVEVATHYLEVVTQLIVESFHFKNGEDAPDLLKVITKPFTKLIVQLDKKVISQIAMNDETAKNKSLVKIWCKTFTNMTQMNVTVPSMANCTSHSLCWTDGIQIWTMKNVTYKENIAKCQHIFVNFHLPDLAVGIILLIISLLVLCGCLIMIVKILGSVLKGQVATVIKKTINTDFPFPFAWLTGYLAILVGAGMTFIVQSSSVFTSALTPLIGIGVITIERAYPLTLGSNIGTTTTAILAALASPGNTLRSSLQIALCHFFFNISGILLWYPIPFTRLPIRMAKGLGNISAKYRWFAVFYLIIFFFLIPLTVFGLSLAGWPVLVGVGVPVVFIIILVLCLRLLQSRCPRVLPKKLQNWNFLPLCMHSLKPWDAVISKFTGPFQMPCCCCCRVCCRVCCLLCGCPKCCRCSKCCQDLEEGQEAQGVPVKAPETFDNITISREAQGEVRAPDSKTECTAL

[4] = target: T1, Human SLC34A2; assay: cell binding, Rat1E cells expressing human SLC34A2
[5] = target: T3, Rat SLC34A2 (rat, UniProt Q9JJ09 1-695); assay: binding affinity on Rat1E cells expressing rat SLC34A2
T3 construct: whole, on cells; also called Rat1E cells expressing SLC34A2 (Rat)
T3 sequence (looked up): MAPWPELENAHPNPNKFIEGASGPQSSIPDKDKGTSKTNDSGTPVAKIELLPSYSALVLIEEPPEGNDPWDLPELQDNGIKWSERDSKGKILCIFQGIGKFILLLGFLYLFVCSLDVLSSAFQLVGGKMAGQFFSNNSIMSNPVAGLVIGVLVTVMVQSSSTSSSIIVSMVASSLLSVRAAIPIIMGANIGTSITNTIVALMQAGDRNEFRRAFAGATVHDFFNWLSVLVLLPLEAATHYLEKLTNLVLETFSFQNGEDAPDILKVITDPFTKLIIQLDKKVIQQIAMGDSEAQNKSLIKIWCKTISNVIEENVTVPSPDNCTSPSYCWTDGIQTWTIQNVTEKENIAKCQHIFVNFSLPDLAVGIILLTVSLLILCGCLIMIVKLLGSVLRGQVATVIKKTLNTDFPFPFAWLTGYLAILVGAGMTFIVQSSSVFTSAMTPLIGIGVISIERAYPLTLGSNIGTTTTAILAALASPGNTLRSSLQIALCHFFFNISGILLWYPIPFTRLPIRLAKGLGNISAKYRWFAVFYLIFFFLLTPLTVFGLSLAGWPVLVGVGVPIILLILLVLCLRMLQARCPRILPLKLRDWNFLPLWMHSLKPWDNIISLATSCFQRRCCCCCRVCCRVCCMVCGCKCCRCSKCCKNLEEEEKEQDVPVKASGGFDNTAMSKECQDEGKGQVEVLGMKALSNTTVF

[6] = target: T1, Human SLC34A2; assay: binding affinity on Rat1E cells expressing human SLC34A2
[7] = target: T2, Cyno SLC34A2; assay: binding affinity on Rat1E cells expressing cynomolgus SLC34A2
[8] = target: T4, Human SLC34A1 (human, UniProt Q06495); assay: flow cytometry on 293-FT cells transiently transfected with human SLC34A1, overlay with isotype control
T4 sequence (target protein, looked up): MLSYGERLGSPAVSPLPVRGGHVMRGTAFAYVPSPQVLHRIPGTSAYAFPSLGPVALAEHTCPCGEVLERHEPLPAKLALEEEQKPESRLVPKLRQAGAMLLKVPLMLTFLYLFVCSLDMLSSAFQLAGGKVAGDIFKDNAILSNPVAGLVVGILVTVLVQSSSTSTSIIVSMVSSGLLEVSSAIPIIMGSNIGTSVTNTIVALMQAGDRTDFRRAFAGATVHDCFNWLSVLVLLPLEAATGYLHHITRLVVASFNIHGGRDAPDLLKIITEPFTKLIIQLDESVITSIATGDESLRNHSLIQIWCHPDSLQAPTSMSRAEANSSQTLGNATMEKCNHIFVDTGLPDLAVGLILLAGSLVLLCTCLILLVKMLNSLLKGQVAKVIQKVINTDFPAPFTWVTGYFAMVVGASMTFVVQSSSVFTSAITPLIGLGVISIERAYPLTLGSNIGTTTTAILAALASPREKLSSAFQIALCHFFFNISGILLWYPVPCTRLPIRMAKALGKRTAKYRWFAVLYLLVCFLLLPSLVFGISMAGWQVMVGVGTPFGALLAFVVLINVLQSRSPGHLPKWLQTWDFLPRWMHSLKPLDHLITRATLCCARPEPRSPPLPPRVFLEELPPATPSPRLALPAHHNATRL

[9] = target: T5, Human SLC34A3 (human, UniProt Q8N130); assay: flow cytometry on 293-FT cells transiently transfected with human SLC34A3, overlay with isotype control
T5 sequence (target protein, looked up): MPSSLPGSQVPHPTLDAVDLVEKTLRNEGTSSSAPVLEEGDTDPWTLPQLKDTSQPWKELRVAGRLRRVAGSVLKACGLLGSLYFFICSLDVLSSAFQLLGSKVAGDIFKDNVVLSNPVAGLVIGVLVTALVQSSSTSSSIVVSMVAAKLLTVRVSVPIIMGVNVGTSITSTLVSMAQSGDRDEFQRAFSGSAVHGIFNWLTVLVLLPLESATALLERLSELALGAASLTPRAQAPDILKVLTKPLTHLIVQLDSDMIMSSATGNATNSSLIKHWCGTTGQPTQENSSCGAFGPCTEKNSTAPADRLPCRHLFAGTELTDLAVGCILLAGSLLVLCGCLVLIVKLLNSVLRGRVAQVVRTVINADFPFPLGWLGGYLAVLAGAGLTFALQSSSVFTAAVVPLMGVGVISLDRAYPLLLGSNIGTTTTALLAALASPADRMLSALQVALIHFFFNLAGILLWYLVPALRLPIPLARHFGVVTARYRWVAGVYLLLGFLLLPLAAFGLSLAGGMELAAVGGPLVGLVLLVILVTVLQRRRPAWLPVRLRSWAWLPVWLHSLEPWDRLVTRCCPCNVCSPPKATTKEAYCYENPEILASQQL

[10] = target: T1, Human SLC34A2; assay: cell-based or functional assay
[11] = target: T4, Human SLC34A1; assay: flow cytometry on 293-FT cells transiently transfected with human SLC34A1, overlay with isotype control ADC
[12] = target: T5, Human SLC34A3; assay: flow cytometry on 293-FT cells transiently transfected with human SLC34A3, overlay with isotype control ADC

Row | Kd [1] [nM] | Bmax [2] | Kd [2] [nM] | Kd [3] [nM] | Kd [4] [nM] | Kd [5] [nM] | Kd [6] [nM] | Kd [7] [nM] | binding result [8] | binding result [9] | binding result [11] | binding result [12] | Binder | in vitro cytotoxicity in target-positive OVCAR3 cells [10]
1 | 3.79 | 15000 | 0.0631 | 0.967 | 1.03 | 0.246 | 0.721 | 0.67 | no binding | no binding | – | – | cHv83-1b15.G1(L328C)k (antibody, V domains shown, the name says L328C in the IgG1 constant region; also called [Ag]AB-3; cHv83-1b15.G1k(L328C)k) VH: EVQLVESGGGWVQPGGSLRLSCAASGFTFSSHIMYWVRQAPGKGLEYVSGISSNGLSSYYVDSVKGRFTISRDNSKNLLYVHMGSLKPEDMAMYYCARGGRDRVPAVFDYWGQGTLVTVSS VL: DIQMTQSPSSLSASIGDRVTITCRASQSIGTFLNWYQQKPGKAPKVLIYVASSLQSGVPSRFIGSGSGTDFTLTISSLQPEDFATYYCQQSYSVPITFGQGTRLEIKR | –
2 | 2.28 | 11300 | 0.0903 | 0.17 | 0.254 | 0.689 | 0.553 | 0.17 | no binding | no binding | – | – | cHv83-3a23.G1(L328C)k (antibody, V domains shown, the name says L328C in the IgG1 constant region; also called [Ag]AB-2; unconjugated antibody of OT1 / OT#1) VH: EVQLVESGGGLVQPGGSLRLSCAASGFTFSSYVMHWVRQAPGKGLEYVSGVSSSGDSTFYVDSVKGRFTISRDNSKNTLYLQMGSLRAEDMAVYYCARGGITGAPLVFDIWGQGTMVTVSS VL: DIQMTQSPSSLSASVGDRVTITCRASQSISRFLNWYQQKPGKAPKVLIYVTSSLQSGVPSRFSGSGSGTDFTLTISSLQPEDFATYYCQQSYNTPITFGQGTRLEIKR | –
3 | – | – | – | – | – | 0.686 | 0.411 | 0.227 | – | – | no binding | no binding | cHv83-3a23.G1(L328C)k-AGL-01332-93 (OT#1) (other, AGL-01332-93 drug-linker conjugated to the antibody; engineered Cys at 328 (L328C) lies in the IgG1 constant region, outside the VH pieces given, Human IgG1 (L328C) / kappa) VH: EVQLVESGGGLVQPGGSLRLSCAASGFTFSSYVMHWVRQAPGKGLEYVSGVSSSGDSTFYVDSVKGRFTISRDNSKNTLYLQMGSLRAEDMAVYYCARGGITGAPLVFDIWGQGTMVTVSS VL: DIQMTQSPSSLSASVGDRVTITCRASQSISRFLNWYQQKPGKAPKVLIYVTSSLQSGVPSRFSGSGSGTDFTLTISSLQPEDFATYYCQQSYNTPITFGQGTRLEIKR | > 10 fold better EC50 than the benchmark ADC
4 | – | – | – | – | – | 0.913 | 1.76 | 1.2 | – | – | no binding | no binding | cHv83-1b15.G1(L328C)k-AGL-01332-93 (OT#2) (other, AGL-01332-93 drug-linker conjugated to the antibody; engineered Cys at 328 (L328C) lies in the IgG1 constant region, outside the VH pieces given, Human IgG1 (L328C) / kappa) VH: EVQLVESGGGWVQPGGSLRLSCAASGFTFSSHIMYWVRQAPGKGLEYVSGISSNGLSSYYVDSVKGRFTISRDNSKNLLYVHMGSLKPEDMAMYYCARGGRDRVPAVFDYWGQGTLVTVSS VL: DIQMTQSPSSLSASIGDRVTITCRASQSIGTFLNWYQQKPGKAPKVLIYVASSLQSGVPSRFIGSGSGTDFTLTISSLQPEDFATYYCQQSYSVPITFGQGTRLEIKR | > 10 fold better EC50 than the benchmark ADC
